Results taken from PMC8467012, “Targeting ErbB3 Receptor in Cancer with Inhibitory Antibodies from Llama” (Biomedicines, 2021).

Experiments:
[1] = target: T1, human ErbB3 extracellular subdomain 3 (ECD^III, residues 329-532) (Homo sapiens, UniProt P21860); assay: SPR; ErbB3 ECD^III immobilised on a CM5 chip by amine coupling; Biacore T200, 37 °C; HBS with 50 µg/mL BSA; conditions: both partners purified
T1 construct: ErbB3 (HER3) receptor, human, extracellular subdomain 3, residues 329-532; secreted with the Igκ leader of the pEE vector; Glycosylated, MW ~25 kDa; also called ErbB3 ECD^III; source: CHO-T-HC cells, transiently transfected, secreted, purified (CaptureSelect C-tag resin)
T1 sequence (P21860 329-532): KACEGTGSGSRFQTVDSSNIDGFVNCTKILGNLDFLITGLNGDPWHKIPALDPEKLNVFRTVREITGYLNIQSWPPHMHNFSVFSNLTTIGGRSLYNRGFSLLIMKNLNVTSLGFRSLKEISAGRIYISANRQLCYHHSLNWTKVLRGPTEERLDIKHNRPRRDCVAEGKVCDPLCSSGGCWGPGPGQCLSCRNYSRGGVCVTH

[2] = target: T2, human ErbB3 extracellular domain (ECD, residues 21-643) (Homo sapiens, UniProt P21860); assay: SPR; ErbB3 ECD immobilised on a CM5 chip by amine coupling; Biacore T200, 37 °C; HBS with 50 µg/mL BSA; equilibrium response read 5 s before injection end, fitted by the Hill equation; geometric means of two experiments; conditions: both partners purified
T2 construct: ErbB3 (HER3) receptor, human, extracellular domain, residues 21-643; secreted with the Igκ leader of the pEE vector; Glycosylated, MW 75 kDa; also called ErbB3 ECD; HER3 extracellular domain; source: CHO-T-HC cells, transiently transfected, secreted, purified (IMAC on HisTrap, SEC on Superdex 200 pg)
T2 sequence (P21860 21-643 R488S): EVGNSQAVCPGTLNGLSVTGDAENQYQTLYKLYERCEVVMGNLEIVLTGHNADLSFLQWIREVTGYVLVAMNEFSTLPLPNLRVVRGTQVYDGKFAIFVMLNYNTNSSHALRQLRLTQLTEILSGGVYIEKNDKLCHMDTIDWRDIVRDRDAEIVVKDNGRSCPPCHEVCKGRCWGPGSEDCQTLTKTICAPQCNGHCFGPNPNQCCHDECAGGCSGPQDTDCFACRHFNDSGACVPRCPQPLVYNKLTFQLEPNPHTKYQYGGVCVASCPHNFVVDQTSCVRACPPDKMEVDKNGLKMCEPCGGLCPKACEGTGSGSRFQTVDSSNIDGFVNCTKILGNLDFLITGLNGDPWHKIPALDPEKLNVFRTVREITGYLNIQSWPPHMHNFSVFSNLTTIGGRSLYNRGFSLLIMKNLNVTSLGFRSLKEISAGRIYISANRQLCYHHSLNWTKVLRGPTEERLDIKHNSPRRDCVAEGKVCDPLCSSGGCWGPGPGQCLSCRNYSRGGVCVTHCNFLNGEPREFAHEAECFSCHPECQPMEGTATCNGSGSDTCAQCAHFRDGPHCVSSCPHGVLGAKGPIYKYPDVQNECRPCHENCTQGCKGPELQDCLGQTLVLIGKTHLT

[3] = target: T2, human ErbB3 extracellular domain (ECD, …); assay: SPR; ErbB3 ECD immobilised on a CM5 chip by amine coupling; Biacore T200, 37 °C; antibodies in HBS (10 mM HEPES pH 7.4, 150 mM NaCl) with 50 µg/mL BSA; sensograms fitted globally by a 1:1 model at three concentrations near KD; geometric means of two experiments; conditions: both partners purified
[4] = target: T3, extracellular domain of ErbB2 (Homo sapiens (assumed), UniProt P04626); assay: SPR; test of antibody specificity against the extracellular domain of ErbB2 (Figure S5); Biacore T200, CM5 chip, 37 °C; conditions: both partners purified
T3 construct: ErbB2 (HER2) receptor, extracellular domain; also called ErbB2 ECD

[5] = target: T4, ErbB3 receptor on cancer cells (Homo sapiens, UniProt P21860); assay: immunostaining of cells or tissue; live cells stained 30 min in PBS with 5 µg/mL directly labelled antibody and Hoechst 33342; confocal microscopy; MCF-7, SK-BR-3, BT-474, Hep G2; K562 as negative control; conditions: one partner purified
T4 construct: ErbB3 (HER3) receptor, endogenous on human cancer cell lines; also called HER3; source: endogenous, on live MCF-7, SK-BR-3, BT-474 and Hep G2 cells
T4 sequence (P21860 20-1342): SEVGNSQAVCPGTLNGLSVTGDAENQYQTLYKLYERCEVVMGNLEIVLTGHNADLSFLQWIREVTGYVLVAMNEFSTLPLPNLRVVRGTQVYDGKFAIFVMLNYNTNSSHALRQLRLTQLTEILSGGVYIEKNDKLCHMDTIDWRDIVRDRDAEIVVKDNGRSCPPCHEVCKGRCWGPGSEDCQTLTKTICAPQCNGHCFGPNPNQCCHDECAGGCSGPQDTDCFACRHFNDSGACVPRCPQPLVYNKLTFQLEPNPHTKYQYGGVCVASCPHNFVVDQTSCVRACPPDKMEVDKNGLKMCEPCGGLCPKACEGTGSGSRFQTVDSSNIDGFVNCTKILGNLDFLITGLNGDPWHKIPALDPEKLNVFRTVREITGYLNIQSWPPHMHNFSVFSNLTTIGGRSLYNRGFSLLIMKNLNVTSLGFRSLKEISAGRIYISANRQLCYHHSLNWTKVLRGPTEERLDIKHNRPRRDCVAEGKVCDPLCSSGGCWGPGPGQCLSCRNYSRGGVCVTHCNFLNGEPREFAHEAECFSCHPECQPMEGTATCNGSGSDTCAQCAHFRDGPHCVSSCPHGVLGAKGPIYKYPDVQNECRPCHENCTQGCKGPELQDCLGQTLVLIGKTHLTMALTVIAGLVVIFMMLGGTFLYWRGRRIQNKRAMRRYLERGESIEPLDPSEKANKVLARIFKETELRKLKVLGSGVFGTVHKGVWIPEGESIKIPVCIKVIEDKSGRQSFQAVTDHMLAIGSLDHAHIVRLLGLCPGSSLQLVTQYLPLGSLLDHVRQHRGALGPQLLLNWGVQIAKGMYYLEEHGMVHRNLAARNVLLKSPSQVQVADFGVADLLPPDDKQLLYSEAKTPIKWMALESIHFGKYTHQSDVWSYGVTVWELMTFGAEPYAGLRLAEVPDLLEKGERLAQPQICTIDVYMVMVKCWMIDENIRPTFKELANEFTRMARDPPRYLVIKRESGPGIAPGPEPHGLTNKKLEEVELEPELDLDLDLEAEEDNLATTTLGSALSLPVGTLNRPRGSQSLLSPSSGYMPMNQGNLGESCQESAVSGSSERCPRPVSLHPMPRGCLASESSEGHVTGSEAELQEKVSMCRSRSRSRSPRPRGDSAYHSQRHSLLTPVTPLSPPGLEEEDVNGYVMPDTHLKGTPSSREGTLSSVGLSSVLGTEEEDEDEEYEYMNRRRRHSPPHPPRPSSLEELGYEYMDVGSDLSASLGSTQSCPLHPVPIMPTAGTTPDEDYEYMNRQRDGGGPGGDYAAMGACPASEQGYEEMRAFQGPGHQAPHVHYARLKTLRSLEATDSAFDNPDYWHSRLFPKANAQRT

Binder | binding result [1] | Kd [2] [nM] | Kd [3] [nM] | koff [3] [s⁻¹] | kon [3] [M⁻¹ s⁻¹] | binding result [4] | binding result [5]
BCD090-M456 (VHH, llama VHH from a phage display library; the product left after TEV cleavage; Lacks the Cys22-Cys92 disulfide bond (cysteines reduced); CDR H3 of 23 residues; also called anti-ErbB3 single-domain antibody BCD090-M456; source: E. coli SHuffle T7 express or BL21(DE3), cytoplasmic, purified (IMAC, TEV cleavage, negative IMAC, ion exchange); not shown: His tag, N-terminal, cleaved; SUMO, N-terminal, …) VHH: QVQLVQSGGGLVQSGGSLKLSCVASGGPFSTYLMGWFRQAPGKEREFVTAISRSGLNTYYADSVKGRFTISRDNAKNTVYLQMHSLKPEDTAVYHCAARRGGTNSGSYYFDRPAVSDEYDLWGQGTLVTVSS | no binding | 8600 ± 800 | 3100 ± 200 | 0.0022 | 720 | – | –
BCD090-P1 (VHH, llama VHH from a phage display library; the product left after TEV cleavage; Monomer by SEC; One disulfide bond Cys22-Cys92; also called anti-ErbB3 single-domain antibody BCD090-P1; source: E. coli SHuffle T7 express or BL21(DE3), cytoplasmic, purified (IMAC, TEV cleavage, negative IMAC, ion exchange); not shown: His tag, N-terminal, cleaved; SUMO, N-terminal, cleaved) VHH: EVQLVQSGGGLVQPGGSLRLSCAASGRTSSKYAMGWFRQAPGKGTEFVATISWSDGSTYYADSVEGRFTISRDNAKNTVYLQMNSLKPEDTAVYYCAAAVDVLAGTFEYEYDYWGQGTLVTVSS | binds | 1.61 ± 0.06 | 1.6 ± 0.2 | 0.003 | 1.9e+06 | no binding | –
BCD090-P1 conjugated with Cy5 or AF488 (VHH, as the VHH of m1 (BCD090-P1); also called labeled BCD090-P1; source: E. coli, purified, then labelled with sulfo-Cy5 or AF488 NHS ester) VHH: EVQLVQSGGGLVQPGGSLRLSCAASGRTSSKYAMGWFRQAPGKGTEFVATISWSDGSTYYADSVEGRFTISRDNAKNTVYLQMNSLKPEDTAVYYCAAAVDVLAGTFEYEYDYWGQGTLVTVSS | – | – | – | – | – | – | binds
pelB-BCD090-P1-His5 (VHH, as the VHH of m1 (BCD090-P1), with the uncleaved pelB leader and a histidine tag; also called BCD090-P1 purified from the periplasm; periplasmically expressed BCD090-P1; source: E. coli, periplasmic expression (pET22b), purified; not shown: pelB leader (uncleaved), N-terminal, kept; His5, C-terminal, kept) VHH: EVQLVQSGGGLVQPGGSLRLSCAASGRTSSKYAMGWFRQAPGKGTEFVATISWSDGSTYYADSVEGRFTISRDNAKNTVYLQMNSLKPEDTAVYYCAAAVDVLAGTFEYEYDYWGQGTLVTVSS | – | 6.5 ± 0.9 | 5.1 ± 0.9 | 0.0044 | 870000 | – | –
BCD090-M2 (VHH, llama VHH from a phage display library; the product left after TEV cleavage; no PDB id is printed; also called anti-ErbB3 single-domain antibody BCD090-M2; source: E. coli SHuffle T7 express, cytoplasmic, purified (IMAC, TEV cleavage, negative IMAC, ion exchange); not shown: His tag, N-terminal, cleaved; SUMO, N-terminal, cleaved) VHH: QVQLVQSGGGLVQAGGSLRLSCAFSGRTFSMYTMGWFRQAPGKEREFVAANRGRGLSPDIADSVNGRFTISRDNAKNTLYLQMDSLKPEDTAVYYCAADLQYGSSWPQRSSAEYDYWGQGTTVTVSS | no binding | 15 ± 1 | 16.5 ± 2 | 0.0036 | 220000 | no binding | –
